Consider 133 substances from the supplement of paper PMC12042874.

± gives the uncertainty stated by the source.

A short description of the data set: amyloid nucleation score (Sup35N fusion, yeast selection) (log enrichment); library NNK3; higher = more nucleation; inactive = no reads after selection. In outline:
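On medium lacking adenine and uracil, psi-negative yeast expressing peptides of 20 random codons fused to Sup35N were grown 7 days at 30°C after a 24-hour induction with 100 μM copper sulfate. Illumina sequencing of input and output plasmid inserts gave the reads, and sequences under 100 input reads were excluded. The nucleation score is the DiMSum log enrichment of output over input reads, centred on the mode score of non-aggregating sequences.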
As for WGFRRT, the amyloid nucleation score entry is “inactive”.
On to SVIIRRGTSQPNRVSWNKVK, for which the amyloid nucleation score result was “inactive”.
The substance VQLPVIVSAPPI returned an amyloid nucleation score of -0.421 ± 1.1.
Turning to KLSCMSTIVCRYTFLQAKQT, the amyloid nucleation score result is “inactive”.
In the case of SITYCWLHR it was 1.77 ± 0.078; in that of NWRPV, “inactive”.
In the case of RGVYNEHFCCGFSMWEPING it was 2.3 ± 0.067; in that of PSSFKMY, “inactive”; in that of MTLCLLSFRGQRSMPLYLWT, “inactive”.
In the case of GSGIINDMGFRWIFFMWVMA it was “inactive”; in that of SFCFFRVTLSCTC, “inactive”; in that of LKGKP, “inactive”.
On to NKPCYLSSFPQCDHFFVWTD, for which the amyloid nucleation score entry is “inactive”.
In the case of DALVSYCWLSNLDTAGKMET it was “inactive”.
Turning to RGAFSPVVWSDRMELLGRWL, the amyloid nucleation score entry was “inactive”.
For the substance YNERLALLGLMVSLNVSSHS, the amyloid nucleation score entry was “inactive”.
In the case of HKWGCGL it was -0.539 ± 1.5; in that of KCISSRARK, “inactive”; in that of TRNMIMRRKSTLRHLVTEAD, “inactive”.
In the case of LLFAYLMRMRISVHIWVRGT it was “inactive”; in that of YVYWREFGACMGSQQWVVRV, “inactive”.
Consider RGSDIMAFAVDYTDNKSECS, for which the amyloid nucleation score result is “inactive”.
Consider EVAWVYEYQL, for which the amyloid nucleation score entry was “inactive”.
Turning to PMVISHMGLFFLKVGISR, the amyloid nucleation score entry was “inactive”.
In the case of DRQLDDGGTRNKFIKCLVAR it was “inactive”; in that of IVYYGVTGLTRGFSEVRKIS, “inactive”.
In the case of KEWVMRLSVGYIDSFHRFAW it was “inactive”; in that of QRRAL, “inactive”.
In the case of CKTHQVSYAYLC it was “inactive”.
Take LSVSIGVVGF: the amyloid nucleation score result is “inactive”.
As for KCSNLVAFVI, the amyloid nucleation score result is “inactive”.
In the case of PTSKGYVVYKETWVLDRSKM it was 1.07 ± 0.17; in that of FLNVKIQNHWRPYPFSPEYA, 1.16 ± 0.092; in that of CYWPVCYSFGKLQACFYFEI, “inactive”.
In the case of RGVNKRKADVTRGCYSVVLN it was “inactive”.
In the case of SYMLTFK, the amyloid nucleation score result was “inactive”.
IYVVLQTWHNYAMLTITGLV gave an amyloid nucleation score of 0.228 ± 0.67.
With ILYICHINKGVGGQIGVMAV, the amyloid nucleation score result is “inactive”.
In the case of LQVVNLSR it was “inactive”; in that of EIYCFRCVVIGIYYLVTIID, “inactive”; in that of GSWSVRLPLIWTKY, “inactive”.
For NMGWSSSYH, the amyloid nucleation score entry was “inactive”.
As to QICHRGEGFWPINSSIRKVV, the amyloid nucleation score entry is “inactive”.
In the case of NSRNMVNGHLH, the amyloid nucleation score result is “inactive”.
SSWSSRATLMLSSEVKSDMV: the amyloid nucleation score result was “inactive”.
Regarding YTMLSVCGVYICYKVYSMCW, the amyloid nucleation score stood at 0.527 ± 0.4.
In the case of WIWLGCPSVMSEEYMSDFHI it was “inactive”; in that of LEYVCMRH, “inactive”; in that of LIFRRCLCNSSCYDLIAGRG, “inactive”.
In the case of FLRLHLFHSWTISLSSYRSV it was “inactive”; in that of ESYLQRPRTSTRMFVMRLKV, “inactive”.
In the case of MYRQGGCVIHWSNVG, the amyloid nucleation score result was “inactive”.
Turning to AFGYKFGSANEAVRMLLSLV, the amyloid nucleation score entry was “inactive”.
In the case of GHQNRTP it was “inactive”; in that of ACSRKISSIVATSRLVSTSG, “inactive”; in that of AASNTAFNYLSTRPIMRWLA, “inactive”.
The substance DLAYIGVFLIMFCFTSVDSM registered an amyloid nucleation score of -0.225 ± 0.58.
In the case of PSVIFRDWFEKMWLDRISVV it was “inactive”; in that of YPWVYLAGYFHFFDELVGIF, “inactive”; in that of SIMTSFRPFPTWRCG, -0.563 ± 0.57.
In the case of AAKYFCNCRGYFAPRLKC it was “inactive”; in that of ASYLNYSFVKIETAVSSNPC, 0.609 ± 0.11; in that of EMSFY, “inactive”.
In the case of SYMACYFSIAYEYFNSTFDK, the amyloid nucleation score result is “inactive”.
In the case of SPVMPMMFGNKRVPLITDLR it was “inactive”; in that of CNYCALLTCLRGMPN, 1.16 ± 0.12.
In turn, VGNFSFD showed an amyloid nucleation score of 0.845 ± 0.16.
In the case of SCAKQLCYHGFLMGH, the amyloid nucleation score result was “inactive”.
In the case of ELCVRQLCY it was “inactive”.
In the case of KGGSVGHQQLYMCWQYNPVF it was “inactive”; in that of GYDVRL, “inactive”; in that of YNHSMGWVCSAFDAKVRILR, “inactive”.
On to FEECGVGPYVTKREATWFNG, for which the amyloid nucleation score result is “inactive”.
As for HKCMCVY, the amyloid nucleation score entry was “inactive”.
As for NALYTSLYRLNLGFWAQMLP, the amyloid nucleation score entry was “inactive”.
As for RDRLVWDRCRTVAPSTGVVR, the amyloid nucleation score result is “inactive”.
Regarding IMKFDSRAYNGYMQMIRPGV, the amyloid nucleation score entry was “inactive”.
As to CVFNMLEQ, the amyloid nucleation score entry is “inactive”.
For the substance YSPAK, the amyloid nucleation score entry was “inactive”.
Take SLTVKFSLLKGESQVDHFVS: the amyloid nucleation score is -0.158 ± 0.85.
With TIVFCIVLGWLEFHRHFVSD, the amyloid nucleation score entry is “inactive”.
In the case of ICNIYCCCQG it was 2.6 ± 0.069; in that of GAYVKPNEWCEGFENSSFEV, “inactive”.
In the case of YMKDALNLRPLRSSTALFLS it was “inactive”.
In the case of VMCMCCISVHSTLMFLDITN, the amyloid nucleation score is 2.85 ± 0.063.
In the case of LGKPASSTQSMWNSFVYWLP it was “inactive”.
With WGQMR, the amyloid nucleation score worked out at 0.456 ± 0.37.
Regarding RDVVCRRMRTRVLSSHAPPR, the amyloid nucleation score entry is “inactive”.
In the case of PGVTSMSLSYPGFWVSPS it was “inactive”; in that of SIFCGCLVLLTGNYLLICIS, 1.13 ± 0.17.
In the case of RGQCVPDAGQVRNGTCMRV it was “inactive”; in that of HFETNTVFQVFEICIVSCCY, 2.34 ± 0.067.
In the case of ENAYLRSCRVVVKESSNVVV it was -0.906 ± 1.4; in that of CTRHLQMFVNIF, 2.23 ± 0.056; in that of YIKLGYQYLYVGE, “inactive”.
PYLLMWSA: the amyloid nucleation score result was “inactive”.
In the case of SCRWMTMCAINSP it was 0.726 ± 0.2; in that of NTWRYN, “inactive”; in that of WRVPCLIVKYDV, “inactive”.
On to YKFFGDLKVAYFGKVKIE, for which the amyloid nucleation score result was “inactive”.
LKHCQMGVVTSSYLMWLVGT: the amyloid nucleation score result is “inactive”.
As to GNYVRIETS, the amyloid nucleation score entry was “inactive”.
As for YKQCN, the amyloid nucleation score entry was “inactive”.
In the case of ILARYLDIYMSSVPVEWVTK, the amyloid nucleation score result was “inactive”.
In the case of WVDWFESSQTFFCALYE it was “inactive”; in that of STPHAHIRSLFMSGYGILTN, “inactive”.
In the case of SRWIGYSFSGGSGGFVGRKA it was “inactive”; in that of VRMSRYSEWQDFNIPIEVIV, 0.776 ± 0.16.
Turning to CGGLHQHNLMRRCRWMKPGE, the amyloid nucleation score entry is “inactive”.
For the substance TWDICFSTLFLMPRMWFGHL, the amyloid nucleation score entry was “inactive”.
As for VFKSSGPAVTSYWY, the amyloid nucleation score result was “inactive”.
In the case of LNQVSLLVGNMRWDCDIKSA, the amyloid nucleation score entry is “inactive”.
In the case of ITPWCFLVSCIRVSYAIVPT it was “inactive”.
In the case of IMELLQV it was “inactive”.
In the case of NQLYSWWRFYGLNS it was “inactive”.
QKNFLGNF: the amyloid nucleation score result is “inactive”.
In the case of KTLWHEVRGDDSNVSSCWFS it was “inactive”; in that of DYIYILSW, “inactive”.
In the case of LVINL it was “inactive”; in that of NFNCSANWYHLSLLTMNHEV, “inactive”.
In the case of NQFMGRVV it was “inactive”; in that of GVRLAWVTSCCRV, “inactive”.
With RSFVVNYWGFSDMLHFCRLC, the amyloid nucleation score entry was “inactive”.
In the case of MLLCMILPK it was 2.26 ± 0.078; in that of AQSEAGDF, “inactive”; in that of GYTRVRVGCYVTVRKFWSMT, -0.14 ± 1.
In the case of FSYAFWVKIIIVFRRFITRK it was “inactive”.
In the case of PLFSYLRHSTGCTFAIPNSE it was “inactive”; in that of LVMINCCHVFRKARSTAERQ, 2.44 ± 0.071.
For the substance LDVYTVTGRDW, the amyloid nucleation score result was “inactive”.
In the case of HYRFNNACLDRGHSEGYWRI it was “inactive”.
For the substance NFSFELMKDHYIGLQMVV, the amyloid nucleation score entry is “inactive”.
In the case of IPFNPALLVPRGFGSFIIPA it was “inactive”.
